Measured values taken from patent US20200141935A1, “SYSTEM, METHOD, APPARATUS AND DIAGNOSTIC TEST FOR PREGNANCY” (BARCELONA INSTITUTE FOR GLOBAL HEALTH, priority 2017, published 2020).

Experiments:
IgG [1] = experiment: Multiplex bead-based immunoassay (Luminex): IgG levels (nMFI) against antigens, compared between groups; assay type: binding, pregnant women; conditions: for Immunoreactivity: recognition by IgGs at levels above BSA recognition: 641 pregnant Mozambican women 2003-2012, mean nMFI above mean BSA nMFI plus 3 SD; for Infection during pregnacy Infection vs no-infection ratio (95% CI): Mozambican women followed 2011-2012; for Exposure dependence Decrease 2010 vs 2003-2005 Ratio (95% CI) / Exposure dependence Increase 2011-2012 vs 2010 Ratio (95% CI): nMFI ratio at delivery, Mozambique, adjusted by parity, age, treatment and HIV; for PW Mz vs PW Bcn Ratio (95% CI) / Parasite density Low vs High ratio (95% CI): nMFI ratio; for PW Mz vs PW Bcn Ratio (95% CI): pregnant Mozambican women vs pregnant Spanish women (N=49); for Parasite density Low vs High ratio (95% CI): below or above 200 genomes per microliter
From the text: (§1) Two multiplex suspension array panels were constructed to quantify IgG responses against P. falciparum recombinant proteins and synthetic peptides, using the xMAP™ technology and the Luminex® 100/200™ System (Luminex® Corp., Austin, Tex.). MagPlex® microspheres (magnetic carboxylated polystyrene microparticles, 5.6 μm) with different spectral signatures were selected for each protein (DBL3X, DBL5ϵ, DBL6ϵ, AMA1 and MSP119), peptides (25 VAR2CSA peptides and pCSP), tetanus toxin and bovine serum albumin (BSA). Antigens were covalently coupled to beads following a modification of the Luminex® Corporation protocol. Protein and peptide multiplex arrays were prepared by pooling together equal volumes of coated beads. Plasma samples or the product of DBS elution were analyzed in duplicate at dilution 1:400 for the protein array and 1:100 for the peptide array. A hyperimmune plasma pool composed by 23 plasmas from malaria infected Mozambican pregnant women (HIP-VAR2CSA) was included in each assay plate, in addition to blanks (wells without sample) to assess background levels. A minimum of 50 microspheres were read per spectral signature and results were exported as crude median fluorescent intensity ([…]). Duplicates were averaged and background MFIs were subtracted. A total of 224 plates were analyzed and the intra-assay variation (mean CV of replicates from 20 plasma samples per plate) ranged from 1.4% to 7.3% for the protein array and from 2.5% to 12.4% for the peptide array. The inter-assay variation (variability of positive pool [HIP-VAR2CSA] between 224 plates) was 5% for the protein array and 26% for the peptide array. Results were normalized (nMFI) to account for plate-to-plate variation by […] the background subtracted MFI of each sample with the value of the positive pool in the same plate and dividing by the median of positive pools in all plates.
(§2) Antibodies were eluted from DBS from Gabon, […] and Kenya, as previously described. Briefly, to achieve a concentration of eluted blood proteins equivalent to a 1:50 plasma dilution antibodies were eluted from four spots of approximately 3 mm in diameter with 200 μl Luminex® assay buffer (1% BSA, 0.05% sodium azide in filtrated PBS [Phosphate-buffered saline]). […]. Controls blood drops were artificially prepared using fresh erythrocytes (blood type 0, assuming a hematocrit approximately of 50%) and freeze plasma from 49 Spanish pregnant women. Filter papers were stored avoiding humidity at −20° C. in Barcelona.
(§3) Presence or absence of antibodies was defined by finite mixture models (FMM) for pregnancy-specific antigens (VAR2CSA peptides and recombinant domains) and by the mean plus 3 standard deviation (SD) of IgG response from pregnant women from Barcelona for general malaria antigens (AMA1, MSP119, and pCSP).
(§4) Data was fitted to a normal distribution by logarithmic transformation of nMFIs. Participant's baseline characteristics and parasitological outcomes were compared between study times and areas by univariate analysis (Fisher's tests for binary outcomes or t-Student test for continuous outcomes). Responses were considered not restricted to malaria when seroprevalences were 5% or high among Spanish pregnant women.
Linear regression models were used to compare antibody levels from Mozambican and Spanish pregnant women. The capacity of antibody levels to mimic malaria trends in Mozambique was analyzed by linear regression models (2010 was compared with 2003-2005 corresponding to a trend of malaria decrease and 2011-2012 with 2010 to a trend of increase) adjusted by treatment, parity, age and HIV.
The impact of P. falciparum infection during pregnancy on antibodies at delivery was assessed in linear regression models adjusted by age, parity, HIV and treatment. Changes in antibody levels due to parasite density (below or above 200) were assessed by linear regression models adjusted by age, parity, HIV and treatment. […]

IgG [2] = experiment: Multiplex bead-based immunoassay: seroprevalence (finite mixture models or negative control cutoff); assay type: binding, pregnant women; conditions: for SeroPrev Delivery %: 239 pregnant Mozambican women followed 2011-2012; for Seroprevalence MQ (%): IPTp with mefloquine; for Seroprevalence K (%): Kenya; for Seroprevalence K (%) / Seroprevalence M (%) / Seroprevalence B (%) / Seroprevalence G (%): at delivery; for MQ (OR): Placebo as reference; for M (OR) / Seroprevalence M (%): Mozambique; for Seroprevalence PL (%): Placebo group; for Seroprevalence A (%) / A (OR): anemia; for A (OR): Non-A as reference; for Seroprevalence Non-A (%): non anemia; for Seroprevalence B (%): Benin; for G (OR) / Seroprevalence G (%): Gabon; for Seroprevalence SP (%): IPTp with sulfadoxine-pyrimethamine; for SP (OR): MQ as reference; for SeroPrev PW Bcn (%): seroprevalence among pregnant Spanish women never exposed to malaria; for Decrease (OR): seroprevalence odds ratio 2010 vs 2003/5, Mozambique; for Decrease (OR) / Increase (OR): adjusted; for Increase (OR): seroprevalence odds ratio 2011/12 vs 2010, Mozambique
From the text: as §1, §2, §3, §4
Seroprevalences between countries (Benin, Gabon and Mozambique for HIV-uninfected and Kenya and Mozambique for HIV-infected), between IPTp intervention group (MQ vs SP for HIV-uninfected and MQ vs Placebo for HIV infected) and anemia status were compared by logistic regression models adjusted by parity, age and treatment.
The modification of the associations by HIV infection or parity was assessed by including interaction terms into the regression models.

IgG [3] = experiment: Antibody dynamics during pregnancy (time to double, half-life, sero-reversion) from bead-based immunoassay; assay type: binding, pregnant Mozambican women; conditions: for Antibody dynamics Time to double weeks (95% CI): women with P. falciparum infection on follow-up, log-linear mixed-effects model
From the text: as §1
The adjusted effect of infection on antibody levels was analyzed using log-linear mixed-effects regression models incorporating Gaussian random intercepts. […] Time to double the antibody levels (T2x) and half-lives were calculated in weeks from the estimated rates and the boundaries at 95% confidence interval obtained from mixed-effects models for subjects suffering a P. falciparum infection at follow-up independent of antibody status at recruitment (Ab[−or+]/Pf+) and subjects seropositive at recruitment and no infection detected on follow-up (Ab+/Pf−), respectively. In situations that the increase rate is a negative value (rate below 1) or the decay rate is a positive value (rate above 1), the calculated T2x or half-life was reported as infinity. Similarly, the time to sero-reversion was calculated for these subjects using the ratio of the seropositivity cutoff by the average antibody titers at recruitment as decay, i.e. how many times the average titers need to be reduced to be equal the cutoff.

[4] = HIV infected, Kenya as reference
[5] = HIV uninfected, Benin as reference
[6] = Mozambican pregnant women at delivery

B1: MSP119: recombinant merozoite surface protein-1, 19-kDa, from 3D7 strain (protein)
chain: NISQHQCVKKQCPENSGCFRHLDEREECKCLLNYKQEGDKCVENPNPTCNENNGGCDADATCTEEDSGSSRKKITCECTKPDSYPLFDGIFCS
Immunoreactivity: recognition by IgGs at levels above BSA recognition (IgG [1]): above BSA recognition
Infection during pregnacy Infection vs no-infection ratio (95% CI) (IgG [1]; nMFI at delivery, adjusted): 3.69 (1.83; 7.46)
Parity MG vs PG ratio (95% CI) (IgG [1]; nMFI at delivery, multigravid vs primigravid Mozambican women, adjusted): 1.6 (0.6; 4.29)
Exposure dependence Decrease 2010 vs 2003-2005 Ratio (95% CI) (IgG [1]): 0.43 (0.28; 0.65)
Exposure dependence Increase 2011-2012 vs 2010 Ratio (95% CI) (IgG [1]): 0.88 (0.60; 1.30)
PW Mz vs PW Bcn Ratio (95% CI) (IgG [1]): 85.07 (46.72; 154.9)
Parasite density Low vs High ratio (95% CI) (IgG [1]; adjusted): 2.55 (0.98; 6.63)
SeroPrev Delivery % (IgG [2]): 89%
Seroprevalence MQ (%) (IgG [2]; HIV infected): 85%
Seroprevalence K (%) (IgG [2]; HIV infected): 88%
MQ (OR) (IgG [2]; HIV infected): 0.84 (0.54; 1.32)
M (OR) (IgG [2]; [4]): 0.73 (0.46; 1.16)
Seroprevalence M (%) (IgG [2]; HIV infected): 85%
Seroprevalence PL (%) (IgG [2]; HIV infected): 87%
Seroprevalence A (%) (IgG [2]; HIV infected): 85%
A (OR) (IgG [2]; HIV infected): 0.90 (0.56; 1.45)
Seroprevalence Non-A (%) (IgG [2]; HIV infected): 87%
Seroprevalence B (%) (IgG [2]; HIV uninfected): 99%
G (OR) (IgG [2]; [5]): 0.08 (0.04; 0.18)
Seroprevalence G (%) (IgG [2]; HIV uninfected): 84%
Seroprevalence MQ (%) (IgG [2]; HIV uninfected): 94%
Seroprevalence SP (%) (IgG [2]; HIV uninfected): 94%
M (OR) (IgG [2]; [5]): 0.13 (0.07; 0.26)
Seroprevalence M (%) (IgG [2]; HIV uninfected): 89%
SP (OR) (IgG [2]; HIV uninfected): 1.02 (0.63; 1.66)
Seroprevalence A (%) (IgG [2]; HIV uninfected): 94%
A (OR) (IgG [2]; HIV uninfected): 0.95 (0.60; 1.51)
Seroprevalence Non-A (%) (IgG [2]; HIV uninfected): 95%
Seroprevalence in Tanzania (IgG [2]; HIV-uninfected women, area of Tanzania where no malaria infection was observed): 48%
Seroprevalence in 2003-2005 (IgG [2]; Mozambican pregnant women at delivery, 2003-2005 pooled): 94%
Seroprevalence 2003/4 (%) (IgG [2]; [6]): 90%
Seroprevalence 2005 (%) (IgG [2]; [6]): 99%
Seroprevalence 2010 (%) (IgG [2]; [6]): 94%
Seroprevalence 2011 (%) (IgG [2]; [6]): 84%
Seroprevalence in 2011-2012 (IgG [2]; Mozambican pregnant women at delivery, 2011-2012 pooled): 87%
Seroprevalence 2012 (%) (IgG [2]; [6]): 90%
SeroPrev PW Bcn (%) (IgG [2]): 4%
Decrease (OR) (IgG [2]): 0.81 (0.31; 2.14)
Increase (OR) (IgG [2]): 0.37 (0.19; 0.74)
Antibody dynamics Sero-revertion weeks (95% CI) (IgG [3]; time to sero-negativisation, seropositive at recruitment, no infection on follow-up): 385.42 (207.36; 2728.50) weeks
Antibody dynamics Time to double weeks (95% CI) (IgG [3]): 31.69 (15.65; ∞) weeks

B2: pcsp: circumsporozoite peptide of 64 aminoacids (NVDP[NANP]15) (peptide)
peptide: NVDPNANPNANPNANPNANPNANPNANPNANPNANPNANPNANPNANPNANPNANPNANPNANP
Immunoreactivity: recognition by IgGs at levels above BSA recognition (IgG [1]): above BSA recognition
Infection during pregnacy Infection vs no-infection ratio (95% CI) (IgG [1]; nMFI at delivery, adjusted): 3.1 (1.75; 5.49)
Exposure dependence Decrease 2010 vs 2003-2005 Ratio (95% CI) (IgG [1]): 0.49 (0.34; 0.71)
Exposure dependence Increase 2011-2012 vs 2010 Ratio (95% CI) (IgG [1]): 1.1 (0.80; 1.52)
PW Mz vs PW Bcn Ratio (95% CI) (IgG [1]): 8.2 (4.84; 13.87)
Parasite density Low vs High ratio (95% CI) (IgG [1]; adjusted): 1.81 (0.75; 4.37)
SeroPrev Delivery % (IgG [2]): 64%
Seroprevalence MQ (%) (IgG [2]; HIV infected): 12%
Seroprevalence K (%) (IgG [2]; HIV infected): 21%
MQ (OR) (IgG [2]; HIV infected): 0.69 (0.44; 1.07)
M (OR) (IgG [2]; [4]): 0.41 (0.26; 0.64)
Seroprevalence M (%) (IgG [2]; HIV infected): 10%
Seroprevalence PL (%) (IgG [2]; HIV infected): 17%
Seroprevalence A (%) (IgG [2]; HIV infected): 12%
A (OR) (IgG [2]; HIV infected): 0.86 (0.52; 1.41)
Seroprevalence Non-A (%) (IgG [2]; HIV infected): 17%
Seroprevalence B (%) (IgG [2]; HIV uninfected): 44%
G (OR) (IgG [2]; [5]): 0.37 (0.24; 0.57)
Seroprevalence G (%) (IgG [2]; HIV uninfected): 23%
Seroprevalence MQ (%) (IgG [2]; HIV uninfected): 31%
Seroprevalence SP (%) (IgG [2]; HIV uninfected): 34%
M (OR) (IgG [2]; [5]): 0.19 (0.14; 0.26)
Seroprevalence M (%) (IgG [2]; HIV uninfected): 13%
SP (OR) (IgG [2]; HIV uninfected): 1.08 (0.84; 1.38)
Seroprevalence A (%) (IgG [2]; HIV uninfected): 34%
A (OR) (IgG [2]; HIV uninfected): 1.19 (0.94; 1.51)
Seroprevalence Non-A (%) (IgG [2]; HIV uninfected): 31%
Seroprevalence 2003/4 (%) (IgG [2]; [6]): 48%
Seroprevalence 2005 (%) (IgG [2]; [6]): 57%
Seroprevalence 2010 (%) (IgG [2]; [6]): 36%
Seroprevalence 2011 (%) (IgG [2]; [6]): 40%
Seroprevalence 2012 (%) (IgG [2]; [6]): 46%
SeroPrev PW Bcn (%) (IgG [2]): 10%
Decrease (OR) (IgG [2]): 0.43 (0.27; 0.69)
Increase (OR) (IgG [2]): 1.19 (0.80; 1.78)
Antibody dynamics Time to double weeks (95% CI) (IgG [3]): 51.33 (22.30; ∞) weeks
